{"source": "patent US20190135908A1", "about": "(Novartis, published 2019)", "binders": {"B1": {"name": "ABGDF15-F (antibody, human IgG1, lambda, V domains shown)", "VH": "EVQLVQSGAEVKKPGESLKISCKGSGYSFTSYWIGWVRQMPGKGLEWMGVIDPSGSYTIYSPSFQGQVTISADKSISTAYLQWSSLKASDTAMYYCARYGRYGTYFDYWGQGTLVTVSS", "VL": "QSVLTQPPSVSGAPGQRVTISCSGSSSNIGVLYVNWYQQLPGTAPKLLIYSNDNRPSGVPDRFSGSKSGTSASLAITGLQAEDEADYYCQSWDSSSNYVFGGGTKLTVLG", "notes": "captured through anti-human Fc in the Biacore assay"}, "B2": {"name": "ABGDF15-B (antibody, human IgG1, lambda, V domains shown)", "VH": "QVQLVQSGAEVKKPGSSVKVSCKASGGTFRSYAVSWVRQAPGQGLEWMGGIIPIFGTANYAQKFQGRVTITADESTSTAYMELSSLRSEDTAVYYCARGPIIMGYQFGLFDHWGQGTLVTVSS", "VL": "SYELTQPLSVSVALGQTARITCSGDNIGSHIVSWYQQKPGQAPVLVIYDKSNRPSGIPERFSGSNSGNTATLTISRAQAGDEADYYCQTWDSIGSVVFGGGTKLTVLG", "notes": "as for B1"}, "B3": {"name": "ABGDF15-C (antibody, human IgG1, lambda, V domains shown)", "VH": "B2 VH", "VL": "B2 VL with L8P, A13S, L14P, R19S, A42S, R76G, A77T, G80M", "notes": "as for B1"}, "B4": {"name": "ABGDF15-D (antibody, human IgG1, lambda, V domains shown)", "VH": "B1 VH with S54D", "VL": "B1 VL", "notes": "as for B1"}, "B5": {"name": "ABGDF15-E (antibody, human IgG1, lambda, V domains shown)", "VH": "B1 VH with S54G", "VL": "B1 VL", "notes": "as for B1"}}, "note": "Changes are numbered by the printed parent chain.", "data": [{"molecular_target": "T1, GDF15 mutant I285R (knuckle region), albumin fusion (human, UniProt Q99988 195-308)", "T1 construct": "not shown: albumin fusion partner", "T1 chain": "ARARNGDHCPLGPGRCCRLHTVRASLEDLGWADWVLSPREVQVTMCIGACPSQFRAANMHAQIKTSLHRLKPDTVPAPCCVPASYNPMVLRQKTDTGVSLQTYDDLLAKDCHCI", "experiment": "direct ELISA on coated albumin-fusion GDF15 mutant", "method": "(§1) Antibody epitope was determined by a direct ELISA method with GDF15 mutants. Albumin fusion GDF15 mutants were coated in wells of a 96-well EIA plate. After blocking, serially diluted anti-hGDF15 human antibodies were added to the GDF15-coated wells, followed by incubation at an ambient temperature for a few hours. Antibody binding was detected using an anti-human IgG antibody conjugated with horseradish peroxidase (HRP) and HRP substrate.", "values": [{"binder": "B1", "binding result": "no binding"}, {"binder": "B2", "binding result": "no binding"}, {"binder": "B3", "binding result": "no binding"}]}, {"molecular_target": "T2, GDF15 mutant S231R (knuckle region), albumin fusion (human, UniProt Q99988 195-308)", "T2 construct": "not shown: albumin fusion partner", "T2 chain": "T1 chain with S37R, R91I", "experiment": "direct ELISA on coated albumin-fusion GDF15 mutant", "method": "as §1", "values": [{"binder": "B2", "binding result": "no binding"}, {"binder": "B3", "binding result": "no binding"}]}, {"molecular_target": "T3, GDF15 mutant L294R (knuckle region), albumin fusion (human, UniProt Q99988 195-308)", "T3 construct": "not shown: albumin fusion partner", "T3 chain": "T1 chain with R91I, L100R", "experiment": "direct ELISA on coated albumin-fusion GDF15 mutant", "method": "as §1", "values": [{"binder": "B1", "binding result": "no binding"}]}, {"molecular_target": "T4, GDF15 mutant Q247R (wrist region), albumin fusion (human, UniProt Q99988 195-308)", "T4 construct": "not shown: albumin fusion partner", "T4 chain": "T1 chain with Q53R, R91I", "experiment": "direct ELISA on coated albumin-fusion GDF15 variant", "method": "as §1", "values": [{"binder": "B4", "binding result": "binds"}, {"binder": "B5", "binding result": "binds"}, {"binder": "B1", "binding result": "binds"}, {"binder": "B2", "binding result": "binds"}, {"binder": "B3", "binding result": "binds"}]}, {"molecular_target": "T5, GDF15 mutant W228R (wrist region), albumin fusion (human, UniProt Q99988 195-308)", "T5 construct": "not shown: albumin fusion partner", "T5 chain": "T1 chain with W34R, R91I", "experiment": "direct ELISA on coated albumin-fusion GDF15 variant", "method": "as §1", "values": [{"binder": "B1", "binding result": "binds"}, {"binder": "B2", "binding result": "binds"}, {"binder": "B3", "binding result": "binds"}]}, {"molecular_target": "T6, GDF15 mutant M253R (wrist region), albumin fusion (human, UniProt Q99988 195-308)", "T6 construct": "not shown: albumin fusion partner", "T6 chain": "T1 chain with M59R, R91I", "experiment": "direct ELISA on coated albumin-fusion GDF15 variant", "method": "as §1", "values": [{"binder": "B4", "binding result": "binds"}, {"binder": "B5", "binding result": "binds"}, {"binder": "B1", "binding result": "binds"}, {"binder": "B2", "binding result": "binds"}, {"binder": "B3", "binding result": "binds"}]}, {"molecular_target": "T7, GDF15 mutant S278R (back-of-hand), albumin fusion (human, UniProt Q99988 195-308)", "T7 construct": "not shown: albumin fusion partner", "T7 chain": "T1 chain with S84R, R91I", "experiment": "direct ELISA on coated albumin-fusion GDF15 variant", "method": "as §1", "values": [{"binder": "B1", "binding result": "binds"}, {"binder": "B2", "binding result": "binds"}, {"binder": "B3", "binding result": "binds"}]}, {"molecular_target": "T8, GDF15 mutant D289R (finger tip region), albumin fusion (human, UniProt Q99988 195-308)", "T8 construct": "not shown: albumin fusion partner", "T8 chain": "T1 chain with R91I, D95R", "experiment": "direct ELISA on coated albumin-fusion GDF15 variant", "method": "as §1", "values": [{"binder": "B1", "binding result": "binds"}, {"binder": "B2", "binding result": "binds"}, {"binder": "B3", "binding result": "binds"}]}, {"molecular_target": "T2, GDF15 mutant S231R (knuckle region), …", "experiment": "direct ELISA: albumin fusion GDF15 mutant coated on the plate, serially diluted antibody, anti-human IgG-HRP detection", "method": "as §1", "values": [{"binder": "B1", "binding result": "binds"}]}, {"molecular_target": "T3, GDF15 mutant L294R (knuckle region), …", "experiment": "direct ELISA: albumin fusion GDF15 mutant coated on the plate, serially diluted antibody, anti-human IgG-HRP detection", "method": "as §1", "values": [{"binder": "B2", "binding result": "binds"}, {"binder": "B3", "binding result": "binds"}]}, {"molecular_target": "T9, Rat GDF15 HIS: HIS-tagged rat GDF15 (rat, UniProt Q9Z0J6 189-303, limits assumed)", "T9 construct": "also called Rat His-GDF15; not shown: His tag", "T9 sequence (looked up)": "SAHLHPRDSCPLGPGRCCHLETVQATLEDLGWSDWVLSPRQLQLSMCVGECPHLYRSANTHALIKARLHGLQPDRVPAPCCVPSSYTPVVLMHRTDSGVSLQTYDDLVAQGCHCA", "experiment": "Biacore SPR, IgG captured via anti-human Fc, GDF15 in flow", "method": "(§2) Biacore assay is based on surface plasmon resonance (SPR) and were used to determine the binding affinity of antibodies to GDF15.\n(§3) Anti-human Fc capture antibody was immobilized at 0.5 μg/ml on CMS chip in all four flow cells to achieve 8000 to 12,000 resonance units (RU) on the surface. Anti-hGDF15 antibodies were captured at flow rate […], at 0.25 to 0.5 μg/ml on the chip to get about 30 RU in flow cells 2, 3 and 4. GDF15 ligand was flowed at […] over captured antibodies and reference flow cell 1 for 600 and 1200 seconds contact time. Eight doses serially diluted 1 to 2, ranging from 20 to 0.156 nM, were tested. All cycles were repeated twice, regenerated between cycles with 3M MgCl₂ at flow […], 20 seconds contact time. Data were normalized by subtracting reference flow cell results. Data were fit with 1:1 Kinetics model with RI (bulk refractive index) set constant at 0.", "units": {"Kd": "nM", "koff": "s⁻¹", "kon": "M⁻¹ s⁻¹"}, "values": [{"binder": "B4", "Kd": 0.0281, "koff": 0.000456, "kon": "1.62e+07"}, {"binder": "B5", "Kd": 0.0396, "koff": 0.000428, "kon": "1.08e+07"}, {"binder": "B1", "Kd": 0.0485, "koff": 0.000538, "kon": "1.11e+07"}, {"binder": "B2", "Kd": 0.097, "koff": 0.00052, "kon": "5.36e+06"}, {"binder": "B3", "Kd": 0.0618, "koff": 0.000483, "kon": "7.81e+06"}]}, {"molecular_target": "T10, Cyno His-GDF15: HIS-tagged cyno GDF15 (cynomolgus, UniProt G7PWZ3 197-308, limits assumed)", "T10 construct": "not shown: His tag", "T10 sequence (looked up)": "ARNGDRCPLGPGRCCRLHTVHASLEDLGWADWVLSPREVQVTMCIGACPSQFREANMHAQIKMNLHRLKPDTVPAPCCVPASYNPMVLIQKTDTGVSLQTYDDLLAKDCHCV", "experiment": "Biacore SPR, IgG captured via anti-human Fc, GDF15 in flow", "method": "as §2, §3", "units": {"Kd": "nM", "koff": "s⁻¹", "kon": "M⁻¹ s⁻¹"}, "values": [{"binder": "B4", "Kd": 0.0141, "koff": 0.000236, "kon": "1.67e+07"}, {"binder": "B5", "Kd": 0.0303, "koff": 0.00038, "kon": "1.26e+07"}, {"binder": "B1", "Kd": 0.035, "koff": 0.00044, "kon": "1.26e+07"}, {"binder": "B2", "Kd": 0.0836, "koff": 0.000461, "kon": "5.52e+06"}, {"binder": "B3", "Kd": 0.065, "koff": 0.000322, "kon": "4.96e+06"}]}, {"molecular_target": "T11, Human His-GDF15: HIS-tagged human GDF15 (human, UniProt Q99988 195-308)", "T11 construct": "not shown: His tag", "T11 sequence": "T1 chain with R91I", "experiment": "Biacore SPR, IgG captured via anti-human Fc, GDF15 in flow", "method": "as §2, §3", "units": {"Kd": "nM", "koff": "s⁻¹", "kon": "M⁻¹ s⁻¹"}, "values": [{"binder": "B1", "Kd": 0.0115, "koff": 0.00048, "kon": "4.19e+07"}, {"binder": "B2", "Kd": 0.0614, "koff": 0.00054, "kon": "8.8e+06"}, {"binder": "B3", "Kd": 0.0422, "koff": 0.000468, "kon": "1.11e+07"}]}, {"molecular_target": "T12, Mouse His-GDF15: HIS-tagged mouse GDF15 (mouse, UniProt Q9Z0J7 189-303)", "T12 construct": "not shown: His tag", "T12 sequence (looked up)": "T9 sequence (looked up) with L4A, L63Q, R75K, Q110R", "experiment": "Biacore SPR, IgG captured via anti-human Fc, GDF15 in flow", "method": "as §2, §3", "units": {"Kd": "nM", "koff": "s⁻¹", "kon": "M⁻¹ s⁻¹"}, "values": [{"binder": "B4", "Kd": 0.0457, "koff": 0.000509, "kon": "1.11e+07"}, {"binder": "B5", "Kd": 0.079, "koff": 0.000535, "kon": "6.78e+06"}, {"binder": "B1", "Kd": 0.0964, "koff": 0.000584, "kon": "6.05e+06"}, {"binder": "B2", "Kd": 0.237, "koff": 0.000626, "kon": "2.64e+06"}, {"binder": "B3", "Kd": 0.116, "koff": 0.000505, "kon": "4.37e+06"}]}, {"molecular_target": "T13, Human GDF15 native: naturally produced human GDF15 purchased from Peprotech (human, UniProt Q99988 195-308)", "T13 construct": "Bought protein", "T13 sequence": "T1 chain with R91I", "experiment": "Biacore SPR, IgG captured via anti-human Fc, GDF15 in flow", "method": "as §2, §3", "units": {"Kd": "nM", "koff": "s⁻¹", "kon": "M⁻¹ s⁻¹"}, "values": [{"binder": "B1", "Kd": 0.0368, "koff": 0.000696, "kon": "1.89e+07"}, {"binder": "B2", "Kd": 0.115, "koff": 0.000389, "kon": "3.38e+06"}, {"binder": "B3", "Kd": 0.0656, "koff": 0.000388, "kon": "5.92e+06"}]}, {"molecular_target": "T13, Human GDF15 native: naturally produced …", "experiment": "Biacore SPR (rounded from Table 2, human GDF15 native)", "method": "as §3", "units": {"Kd": "nM"}, "values": [{"binder": "B1", "Kd": 0.037}, {"binder": "B2", "Kd": 0.115}, {"binder": "B3", "Kd": 0.066}]}]}
